Where a chain is given by its changes, count along the chain named.
Legend:
[1] = biological target: GST‐tagged W105,107A variant of recombinant P. falciparum enolase (not stated | Plasmodium falciparum); assay: SEC; proteins with the GST tag; Superdex‐200 Increase 10/300 GL, 1 mg protein in 0.5 mL buffer; 50 mM Tris‐HCl, 150 mM NaCl, 5 mM MgCl2 pH 7.5
[2] = biological target: GST‐tagged W105,107A variant of recombinant P. falciparum enolase (not stated | Plasmodium falciparum)
[3] = biological target: GST‐tagged W105,107K variant of recombinant P. falciparum enolase (not stated | Plasmodium falciparum); assay: SEC; proteins with the GST tag; Superdex‐200 Increase 10/300 GL, 1 mg protein in 0.5 mL buffer; 50 mM Tris‐HCl, 150 mM NaCl, 5 mM MgCl2 pH 7.5
[4] = biological target: GST‐tagged W105,107K variant of recombinant P. falciparum enolase (not stated | Plasmodium falciparum)
[5] = biological target: the molecule itself; assay: cell-based or functional assay
[6] = biological target: the molecule itself; assay: SEC; proteins without the GST tag; Superdex‐200 HiLoad 16/600, 1–2 mg of protein in 2 mL buffer; 50 mM Tris‐HCl, 150 mM NaCl, 5 mM MgCl2 pH 7.5; dimer to monomers

## GST‐tagged W105,107A variant of recombinant P. falciparum enolase (enzyme)
[1]
  stoichiometry N: 2
[2]
  enolase activity, V max (% of GST‐rPfeno) (% of GST‐rPfeno): 22

## GST‐tagged W105,107K variant of recombinant P. falciparum enolase (enzyme)
[3]
  stoichiometry N: 2
[4]
  enolase activity, V max (% of GST‐rPfeno) (% of GST‐rPfeno): 33

B1: W105,107A variant of recombinant P. falciparum enolase, GST tag removed (enzyme, Plasmodium falciparum, UniProt Q27727 1-446, looked up)
chain: MAHVITRINAREILDSRGNPTVEVDLETNLGIFRAAVPSGASTGIYEALELRDNDKSRYLGKGVQKAIKNINEIIAPKLIGMNCTEQKKIDNLMVEELDGSKNEAGASKSKLGANAILAISMAVCRAGAAPNKVSLYKYLAQLAGKKSDQMVLPVPCLNVINGGSHAGNKLSFQEFMIVPVGAPSFKEALRYGAEVYHTLKSEIKKKYGIDATNVGDEGGFAPNILNANEALDLLVTAIKSAGYEGKVKIAMDVAASEFYNSENKTYDLDFKTPNNDKSLVKTGAQLVDLYIDLVKKYPIVSIEDPFDQDDWENYAKLTAAIGKDVQIVGDDLLVTNPTRITKALEKNACNALLLKVNQIGSITEAIEACLLSQKNNWGVMVSHRSGETEDVFIADLVVALRTGQIKTGAPCRSERNAKYNQLLRIEESLGNNAVFAGEKFRLQLN
[5]
  enolase activity, V max (% WT rPfeno): 4 % of WT‐rPfeno

B2: recombinant P. falciparum enolase, wild type (WT‐rPfeno), GST tag removed (enzyme, Plasmodium falciparum, UniProt Q27727 1-446, looked up)
chain: B1 chain with A105W, A107W
notes: Plasmodium falciparum enolase (Pfeno), UniProt Q27727, 446 amino acids; also called Plasmodium falciparum enolase; source: E. coli BL21 (DE3), pGEX4T1, purified on glutathione Sepharose, GST tag cut off with thrombin
[6]
  stoichiometry N: 2

Source: PMC5494301, “Functions of tryptophan residues in EWGWS insert of Plasmodium falciparum enolase” (FEBS Open Bio, 2017)
